In IntAct's records for PubMed 24132237:

Target: wasf2_human WASF2 (UniProt Q9Y6W5)

Substance: Ras-related C3 botulinum toxin substrate 1 (Homo sapiens) (from UniProt P63000-1) Q61L
- effect of a mutation on the interaction: increasing interaction strength
